Experimental data published in publication PMC8282004.

Target: hACE2-K31N/K353H (human) (UniProt Q9BYF1)
Assay: flow cytometry on cells

“recombinant SARS-CoV-2 spike RBD-Fc protein (from UniProt P0DTC2 319-524) (Fc fusion)” gave a binding efficiency (percentage of GFP+ cells that bound RBD-Fc) of 7.86%.
